Results from the supplement of paper PMC10126150.
± gives the standard deviation of the averaged measurements.
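Note: ATP exposure 15 min at 22 °C before imaging.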

What follows are sequences tested on ATP (assay: switch fluorescence ratio, 500 uM ATP over buffer (Cy3 cluster intensity, sum of 5 cycles each) (fold (ratio)); higher = stronger signal-on switching upon ATP binding; sequences stand for … in TCGTCGGCAGCGTCAGATGTGTATAAGAGACAGTTTTTTTTTTTTTTTTTTTTTTTTT…TC). Conditions: aptamer strand: ATP DNA aptamer (quencher-CACCTGGGGGAGTATTGCGGAGGAAGG + anchor), 100 nM annealed; ATP concentration: 500 uM.
Method in brief: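 The fluorescence ratio divides summed target-cycle Cy3 intensity by summed buffer-cycle Cy3 intensity for each cluster and is averaged per switch-domain sequence. Cy3-labelled switching-strand clusters on a modified Illumina MiSeq flow-cell were annealed to 100 nM quencher-labelled ATP aptamer, then imaged in selection buffer and again after 15 min with 500 uM ATP at 22 °C. Five such cycles were run, with NaOH stripping and re-annealing between them, and clusters outside 100-1000 RFU were excluded.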
TCCGTGGGGG was tested, and the switch fluorescence ratio was 1.09 ± 0.14.
TCCGTGTGGG showed a switch fluorescence ratio of 1.04 ± 0.028.
Work on TCCGTTGTTT yielded a switch fluorescence ratio of 1.03 ± 0.044.
Work on TCCGTTTCGG yielded a switch fluorescence ratio of 0.997 ± 0.047.
For TCCGTTTTGA, the switch fluorescence ratio was 1.001 ± 0.0095.
Sequence TCCTAAACGG has a switch fluorescence ratio of 0.988 ± 0.03.
TCCTACGGGG was tested, and the switch fluorescence ratio was 1.14 ± 0.18.
TCCTAGGTGT showed a switch fluorescence ratio of 4 ± 0.28.
Work on TCCTAGTTGT yielded a switch fluorescence ratio of 0.9798 ± 0.0013.
TCCTATATAA showed a switch fluorescence ratio of 1.03 ± 0.058.
TCCTATTAGG showed a switch fluorescence ratio of 0.9888 ± 0.0054.
In the case of TCCTCATGTT, the switch fluorescence ratio is reported as 1.07 ± 0.032.
Work on TCCTGGAGCG yielded a switch fluorescence ratio of 1.08 ± 0.068.
With TCCTGGATGG the switch fluorescence ratio was 0.98 ± 0.022.
In the case of TCCTGGCTGT, the switch fluorescence ratio is reported as 1.09 ± 0.027.
TCCTGGCTTT showed a switch fluorescence ratio of 1.26 ± 0.29.
In the case of TCCTGGTGAT, the switch fluorescence ratio is reported as 1.22 ± 0.12.
In the case of TCCTGTCTTT, the switch fluorescence ratio is reported as 1.01 ± 0.014.
TCCTGTGGGA gave a switch fluorescence ratio of 1.007 ± 0.0053.
TCCTTCACCT showed a switch fluorescence ratio of 1.24 ± 0.069.
With TCCTTGCTGT the switch fluorescence ratio was 1.12 ± 0.095.
With TCCTTGTAAG the switch fluorescence ratio was 1.01 ± 0.03.
For TCCTTGTAGT, the switch fluorescence ratio was 1.11 ± 0.17.
In the case of TCCTTTATTG, the switch fluorescence ratio is reported as 1.01 ± 0.021.
In the case of TCCTTTTAGA, the switch fluorescence ratio is reported as 1.01 ± 0.011.
TCCTTTTGG gave a switch fluorescence ratio of 0.996 ± 0.044.
Work on TCGAAATAGG yielded a switch fluorescence ratio of 1.005 ± 0.0023.
TCGAAATCGG showed a switch fluorescence ratio of 1.03 ± 0.021.
Sequence TCGAAGAAGT has a switch fluorescence ratio of 0.997 ± 0.016.
TCGAAGCCGG was tested, and the switch fluorescence ratio was 0.9774 ± 0.0061.
TCGAAGGCAT was tested, and the switch fluorescence ratio was 1.06 ± 0.03.
Sequence TCGAAGGGGT has a switch fluorescence ratio of 0.982 ± 0.013.
TCGAAGTCAG gave a switch fluorescence ratio of 1.06 ± 0.044.
Sequence TCGAATAACT has a switch fluorescence ratio of 2.2 ± 1.7.
With TCGAATATCA the switch fluorescence ratio was 1.007 ± 0.0097.
In the case of TCGAATTTGT, the switch fluorescence ratio is reported as 0.99 ± 0.03.
Work on TCGACAAAGG yielded a switch fluorescence ratio of 1.07 ± 0.021.
TCGACATGGT gave a switch fluorescence ratio of 0.995 ± 0.041.
TCGACCATCG gave a switch fluorescence ratio of 0.974 ± 0.033.
TCGACCTTCT showed a switch fluorescence ratio of 1.77 ± 0.17.
For TCGACGATTT, the switch fluorescence ratio was 1.23 ± 0.26.
TCGACGGGGG showed a switch fluorescence ratio of 1.06 ± 0.081.
TCGAGACAGG showed a switch fluorescence ratio of 1 ± 0.027.
TCGAGAGTAG gave a switch fluorescence ratio of 0.948 ± 0.016.
TCGAGATGTA showed a switch fluorescence ratio of 1.03 ± 0.067.
TCGAGATTAA was tested, and the switch fluorescence ratio was 1.01 ± 0.024.
In the case of TCGAGCAGTG, the switch fluorescence ratio is reported as 1.06 ± 0.013.
TCGAGCCGAA gave a switch fluorescence ratio of 1.04 ± 0.019.
With TCGAGGAGTT the switch fluorescence ratio was 1.012 ± 0.01.
In the case of TCGAGGCTGT, the switch fluorescence ratio is reported as 1.18 ± 0.05.
Work on TCGAGGGAAG yielded a switch fluorescence ratio of 0.998 ± 0.023.
For TCGAGGGTCT, the switch fluorescence ratio was 1.023 ± 0.0083.
Sequence TCGAGTATCG has a switch fluorescence ratio of 1.02 ± 0.044.
In the case of TCGAGTCGGT, the switch fluorescence ratio is reported as 1.02 ± 0.034.
In the case of TCGAGTTGGT, the switch fluorescence ratio is reported as 1.01 ± 0.0018.
In the case of TCGAGTTGTT, the switch fluorescence ratio is reported as 0.988 ± 0.021.
TCGAGTTTGC was tested, and the switch fluorescence ratio was 0.931 ± 0.027.
For TCGATAAATG, the switch fluorescence ratio was 1.06 ± 0.033.
TCGATAATTT gave a switch fluorescence ratio of 0.986 ± 0.022.
For TCGATCTTGG, the switch fluorescence ratio was 0.988 ± 0.011.
Sequence TCGATGCTAG has a switch fluorescence ratio of 1.03 ± 0.065.
For TCGATGGTTT, the switch fluorescence ratio was 1.013 ± 0.01.
For TCGATTCAGT, the switch fluorescence ratio was 0.9804 ± 0.0054.
TCGATTTGGC showed a switch fluorescence ratio of 1 ± 0.045.
In the case of TCGCAGTTTC, the switch fluorescence ratio is reported as 1.7002 ± 0.00038.
TCGCATTGGT showed a switch fluorescence ratio of 1.24 ± 0.037.
For TCGCCCGCGA, the switch fluorescence ratio was 1.51 ± 0.063.
For TCGCGAAATG, the switch fluorescence ratio was 0.968 ± 0.025.
TCGCGCGGGT showed a switch fluorescence ratio of 0.9887 ± 0.008.
Work on TCGCGGTTAT yielded a switch fluorescence ratio of 1.06 ± 0.029.
TCGCGTGTTG was tested, and the switch fluorescence ratio was 1.017 ± 0.0032.
With TCGCGTTGTG the switch fluorescence ratio was 1.02 ± 0.034.
For TCGCTGCGGA, the switch fluorescence ratio was 1.01 ± 0.018.
With TCGCTGCTTG the switch fluorescence ratio was 1.065 ± 0.0074.
With TCGCTTATCG the switch fluorescence ratio was 1.02 ± 0.072.
TCGCTTGGGA showed a switch fluorescence ratio of 1.03 ± 0.017.
In the case of TCGCTTTTGG, the switch fluorescence ratio is reported as 1.02 ± 0.033.
In the case of TCGGAAAAAT, the switch fluorescence ratio is reported as 0.966 ± 0.0099.
TCGGAAGGGT gave a switch fluorescence ratio of 0.9933 ± 0.0075.
Sequence TCGGAATGTG has a switch fluorescence ratio of 1.01 ± 0.045.
TCGGAATGTT showed a switch fluorescence ratio of 1.02 ± 0.025.
Sequence TCGGAATTGC has a switch fluorescence ratio of 1.56 ± 0.33.
In the case of TCGGACACAT, the switch fluorescence ratio is reported as 1.07 ± 0.03.
TCGGACATGG was tested, and the switch fluorescence ratio was 1.015 ± 0.0082.
In the case of TCGGACGGGC, the switch fluorescence ratio is reported as 1.26 ± 0.18.
For TCGGACTCGT, the switch fluorescence ratio was 1.03 ± 0.044.
Sequence TCGGAGACTC has a switch fluorescence ratio of 1.05 ± 0.022.
TCGGAGATCG showed a switch fluorescence ratio of 0.9443 ± 0.001.
In the case of TCGGAGCTTG, the switch fluorescence ratio is reported as 1.16 ± 0.064.
Work on TCGGAGGAGC yielded a switch fluorescence ratio of 1.05 ± 0.026.
For TCGGAGGCTT, the switch fluorescence ratio was 1 ± 0.027.
TCGGAGGGTT was tested, and the switch fluorescence ratio was 1.016 ± 0.0052.
TCGGAGTGGG showed a switch fluorescence ratio of 1.03 ± 0.043.
TCGGATTCGA showed a switch fluorescence ratio of 1.015 ± 0.0092.
TCGGATTGGG gave a switch fluorescence ratio of 0.993 ± 0.033.
TCGGCAATTT was tested, and the switch fluorescence ratio was 1.4 ± 0.34.
TCGGCAGCGG was tested, and the switch fluorescence ratio was 1.01 ± 0.034.
Work on TCGGCAGGGA yielded a switch fluorescence ratio of 1.01 ± 0.051.
In the case of TCGGCCACAG, the switch fluorescence ratio is reported as 1.05 ± 0.02.
With TCGGCCAGAG the switch fluorescence ratio was 1.01 ± 0.012.
